From patent publication US20240011005A1 (HUIDAGENE THERAPEUTICS, published 2024)
Changes are numbered by the printed parent chain.

Key:
Assay in all cases: cell_activity
[1] = test system: T1, OsCas12f1 (ME-B.3) (Oscillibacter sp.); conditions: PAM TTTC, HEK293T
T1 sequence: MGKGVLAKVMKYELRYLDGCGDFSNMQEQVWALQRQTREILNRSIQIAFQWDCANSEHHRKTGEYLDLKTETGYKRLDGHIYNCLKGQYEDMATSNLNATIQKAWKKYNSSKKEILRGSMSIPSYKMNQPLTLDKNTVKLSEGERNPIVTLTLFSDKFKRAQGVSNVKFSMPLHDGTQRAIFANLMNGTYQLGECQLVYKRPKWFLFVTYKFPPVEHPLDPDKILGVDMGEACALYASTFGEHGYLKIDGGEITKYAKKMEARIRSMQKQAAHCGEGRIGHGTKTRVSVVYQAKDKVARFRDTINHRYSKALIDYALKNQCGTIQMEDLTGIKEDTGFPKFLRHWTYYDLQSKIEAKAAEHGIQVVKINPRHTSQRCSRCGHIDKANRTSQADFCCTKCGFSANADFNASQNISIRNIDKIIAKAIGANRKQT

[2] = test system: T2, OsCas12f1-A54R A54R (Oscillibacter sp.); conditions: PAM TTTC
T2 sequence: T1 sequence with A54R

[3] = test system: T3, OsCas12f1-D52R (Oscillibacter sp.); conditions: PAM TTTC; 1.31-fold in text
T3 sequence: T1 sequence with D52R

[4] = test system: T4, OsCas12f1-S119R S119R (Oscillibacter sp.); conditions: PAM TTTC
T4 sequence: T1 sequence with S119R

[5] = test system: T5, OsCas12f1-S141R S141R (Oscillibacter sp.); conditions: PAM TTTC
T5 sequence: T1 sequence with S141R

[6] = test system: T6, OsCas12f1-T132R T132R (Oscillibacter sp.); conditions: PAM TTTC
T6 sequence: T1 sequence with T132R

[7] = target: T7, Un1Cas12f1_ge4.1 (Uncultured bacterium) (UniProt A0A482D308); conditions: PAM TTTG per Table 1; 36.1 in Rh screen
T7 sequence: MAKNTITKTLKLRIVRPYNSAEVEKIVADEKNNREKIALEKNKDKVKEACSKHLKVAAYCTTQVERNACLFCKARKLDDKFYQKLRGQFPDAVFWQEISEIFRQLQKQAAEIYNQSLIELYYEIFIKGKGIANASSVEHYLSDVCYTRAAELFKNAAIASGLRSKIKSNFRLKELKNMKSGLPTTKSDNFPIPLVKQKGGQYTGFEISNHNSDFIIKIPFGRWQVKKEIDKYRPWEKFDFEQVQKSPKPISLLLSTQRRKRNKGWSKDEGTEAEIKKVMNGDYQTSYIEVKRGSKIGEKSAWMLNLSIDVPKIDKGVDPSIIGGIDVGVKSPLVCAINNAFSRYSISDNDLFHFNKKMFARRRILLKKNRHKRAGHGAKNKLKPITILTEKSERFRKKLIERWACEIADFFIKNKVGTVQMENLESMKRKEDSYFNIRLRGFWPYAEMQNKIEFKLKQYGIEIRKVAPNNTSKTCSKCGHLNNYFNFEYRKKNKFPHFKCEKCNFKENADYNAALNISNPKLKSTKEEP

Row | Sequence | activity [1] | activity [2] | activity [3] | activity [4] | activity [5] | activity [6] | activity [7]
1 | AGGGACGACUUCCCGUCCCAAAAUCGAGACAGUAGCCGUAAAACUUUGAGUUUCAGAGUGGGCGACACACUCGAAAAGGUUAAGAUAUGCACAUAGUAAUCCGUGCAUGAGCCGCGAAAGCGGCUUGAAGGCCAUUACAGUAGGAGCAUACUUUUAUUUUUUU / TTTCCCATTACAGTAGGAGCATACGGG / CCCGTATGCTCCTACTGTAATGGGAAA | 38.7 % GFP+ | 45.5 % GFP+ | 52.8 % GFP+ | 46.3 % GFP+ | 46.6 % GFP+ | 48.4 % GFP+ | –
2 | ACCGCUUCACUUAGAGUGAAGGUGGGCUGCUUGCAUCAGCCUAAUGUCGAGAAGUGCUUUCUUCGGAAAGUAACCCUCGAAACAAAGAAAGGAAUGCAACCCAUUACAGUAGGAGCAUACUUUUAUUUUUUU / TTTGCCATTACAGTAGGAGCATAC / GTATGCTCCTACTGTAATGGCAAA [Un1Cas12f1_ge4.1 sgRNA ; reporter insertion, TTTG PAM] | – | – | – | – | – | – | 36.5 % GFP+
